Test results published in US9745384B2, “Peptides useful for modulating histone demethylase function” (The Brigham and Women's Hospital, Inc., priority 2012, dated 2017).

How the values were obtained:
[1] = biological target: T1, LSD2 (Homo sapiens, UniProt Q8NB78); assay: Immunofluorescence of histone methylation in cells coexpressing LSD2 and NPAC; type: cell-based; design: expressed in transfected cells; host or cells: U2OS
T1 sequence (Q8NB78 1-822): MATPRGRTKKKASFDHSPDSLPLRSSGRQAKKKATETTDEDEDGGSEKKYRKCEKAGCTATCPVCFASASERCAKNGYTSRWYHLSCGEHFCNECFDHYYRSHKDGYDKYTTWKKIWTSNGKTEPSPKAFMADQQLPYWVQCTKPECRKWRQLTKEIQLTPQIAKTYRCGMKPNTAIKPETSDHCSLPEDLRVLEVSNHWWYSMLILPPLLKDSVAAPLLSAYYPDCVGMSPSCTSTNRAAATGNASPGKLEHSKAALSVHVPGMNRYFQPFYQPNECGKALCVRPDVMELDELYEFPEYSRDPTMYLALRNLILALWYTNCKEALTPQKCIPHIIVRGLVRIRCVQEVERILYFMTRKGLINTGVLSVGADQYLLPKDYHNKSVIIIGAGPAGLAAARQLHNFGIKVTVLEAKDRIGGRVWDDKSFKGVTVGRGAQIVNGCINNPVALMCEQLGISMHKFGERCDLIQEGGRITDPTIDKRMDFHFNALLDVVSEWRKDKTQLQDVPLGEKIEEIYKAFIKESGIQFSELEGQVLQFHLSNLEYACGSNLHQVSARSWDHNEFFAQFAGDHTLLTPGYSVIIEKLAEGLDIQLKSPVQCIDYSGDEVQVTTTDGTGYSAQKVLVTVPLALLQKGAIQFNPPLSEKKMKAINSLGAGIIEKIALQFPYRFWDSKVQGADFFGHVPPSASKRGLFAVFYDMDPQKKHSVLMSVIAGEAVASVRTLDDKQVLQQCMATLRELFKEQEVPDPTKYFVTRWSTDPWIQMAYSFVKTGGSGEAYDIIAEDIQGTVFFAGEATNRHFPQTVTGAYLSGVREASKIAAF
Description: FIG. 1A depicts a schematic of NPAC domain structure. AT, AT-hook motif. PWWP, Pro-Trp-Trp-Pro domain (SEQ ID NO: 63). […] Tandem affinity purified NPAC and LSD2 complexes were incubated with nucleosomes purified from HeLa, and analyzed by immunoblot using indicated antibodies. […] The amount of LSD2 enzyme and NPAC cofactor proteins used in each reaction is indicated. Demethylation was assessed by Immunoblot using indicated antibodies. […] Representatives with similar levels of GFP-LSD2 are shown. See also FIGS. 7A-7D.
FIG. 7A depicts the determination of the threshold dosage of purified LSD2 required for nucleosomal H3K4 demethylation. 2 μg of nucleosomes purified from HeLa were incubated with various amount of His-LSD2 proteins for 2 hours at 30° C. The demethylation reactions were analyzed by immunoblotting using indicated antibodies. […] 2 μg LSD1 in combination with 5 μg purified NPAC or CoREST protein was used for histone demethylase assays. […] Transfected cells are marked by arrows; cells shown significant reduction of H3K4me1 are marked by dotted circles. […] In contrast, coexpression of LSD2 and NPAC induces obvious global decrease of H3K4me1. […] FIG. 7D depicts immunofluorescence analyses of H3K9me2 demethylation in cells coexpressing LSD2 and full-length NPAC.

[2] = biological target: T1, LSD2; assay: H3K4me2 peptide demethylation assay (MALDI-TOF); type: biochemical; design: 0.15 μM or 1.2 μM purified LSD2 (residues 51-822); His6 (cleaved yes); made in house; host or cells: Sf9 insect cells (baculovirus); conditions: longer H3K4me2 peptide residues 1-44
Description: FIGS. 12A-12F depict analysis of LSD2 demethylation activity and mutational analysis. […] Demethylation products were analyzed by MALDI-TOF mass spectrometry. 0.15 μM LSD2 can efficiently demethylate the longer H3K4me2 peptide (1-21), but has no detectable activity on the shorter histone peptide (1-15), demethylation of which requires high concentration (1.2 μM) of LSD2. […] It indicates the importance of histone residue 16-21 to LSD2 enzymatic activity and NPAC cofactor activity, supporting our model that NPAC assists enzyme-substrate interactions by creating a new binding site for H3 L20 in the LSD2-NPAC complex. FIG. 12C depicts LSD2 demethylation and NPAC cofactor activity on longer H3K4me2 peptide (1-44). […] The cofactor activity of wild-type NPAC was readily detected under the same conditions. […] It is noted that no obvious cofactor effect of F217A peptide or linker regions was detected in nucleosome and peptide demethylation assays (FIG. 6E and data not shown). […]
Histone peptides are purchased from Millipore, or custom synthesized. The purity of all peptides are >95% as determined by HPLC and mass spectrometry. […] The products were desalted through a C18 Ziptip (Millipore) and analyzed on a MALDI-TOF micro MX mass spectrometer (ABI 4700, Applied Biosystems). […]

B1: NPAC: full-length human NPAC/GLYR1 (protein ID: Q49A26), recombinant, LSD2 cofactor (protein)
chain: MAAVSLRLGDLVWGKLGRYPPWPGKIVNPPKDLKKPRGKKCFFVKFFGTEDHAWIKVEQLKPYHAHKEEMIKINKGKRFQQAVDAVEEFLRRAKGKDQTSSHNSSDDKNRRNSSEERSRPNSGDEKRKLSLSEGKVKKNMGEGKKRVSSGSSERGSKSPLKRAQEQSPRKRGRPPKDEKDLTIPESSTVKGMMAGPMAAFKWQPTASEPVKDADPHFHHFLLSQTEKPAVCYQAITKKLKICEEETGSTSIQAADSTAVNGSITPTDKKIGFLGLGLMGSGIVSNLLKMGHTVTVWNRTAEKCDLFIQEGARLGRTPAEVVSTCDITFACVSDPKAAKDLVLGPSGVLQGIRPGKCYVDMSTVDADTVTELAQVIVSRGGRFLEAPVSGNQQLSNDGMLVILAAGDRGLYEDCSSCFQAMGKTSFFLGEVGNAAKMMLIVNMVQGSFMATIAEGLTLAHVTGQSQQTLLDILNQGQLASIFLDQKCQNILQGNFKPDFYLKYIQKDLRLAIALGDAVNHPTPMAAAANEVYKRAKALDQSDNDMSAVYRAYIH
[1]; coexpression of NPAC and LSD2
  Change of H3K9me2 and other histone marks in cells: no detectable changes
[1]; coexpression of NPAC and LSD2 vs LSD2 alone, U2OS
  Depletion of di- and mono-methylated H3K4 in cells: much more pronounced depletion of di- and mono-methylated H3K4 in cells than expressing LSD2 alone
[2]
  Cofactor activity: stimulation of LSD2 demethylation of H3K4me2 peptide: can robustly stimulate LSD2 demethylation of the longer peptide (1-44)
